Legend:
[1] = molecular target: synthetic cyclic peptide (1) KHETTET; experiment: ELISA on coated Pep 1; control IgG 1 ug/ml
[2] = molecular target: synthetic cyclic peptide (1) KHETTET; experiment: ELISA on coated Pep 1; control IgG 5 ug/ml
[3] = molecular target: synthetic cyclic peptide (2) PPNHSHL; experiment: ELISA on coated Pep 2; control IgG 1 ug/ml
[4] = molecular target: synthetic cyclic peptide (2) PPNHSHL; experiment: ELISA on coated Pep 2; control IgG 5 ug/ml
[5] = molecular target: synthetic cyclic peptide (3) AGLKNSQ; experiment: ELISA on coated Pep 3; control IgG 1 ug/ml
[6] = molecular target: synthetic cyclic peptide (3) AGLKNSQ; experiment: ELISA on coated Pep 3; control IgG 5 ug/ml
[7] = molecular target: synthetic cyclic peptide (4) ASTIRAG; experiment: ELISA on coated Pep 4; control IgG 1 ug/ml
[8] = molecular target: synthetic cyclic peptide (4) ASTIRAG; experiment: ELISA on coated Pep 4; control IgG 5 ug/ml
[9] = molecular target: synthetic cyclic peptide (5) VRVLLRS; experiment: ELISA on coated Pep 5; control IgG 1 ug/ml
[10] = molecular target: synthetic cyclic peptide (5) VRVLLRS; experiment: ELISA on coated Pep 5; control IgG 5 ug/ml
[11] = molecular target: synthetic cyclic peptide (6) TQPPELP; experiment: ELISA on coated Pep 6; control IgG 1 ug/ml
[12] = molecular target: synthetic cyclic peptide (6) TQPPELP; experiment: ELISA on coated Pep 6; control IgG 5 ug/ml
[13] = molecular target: synthetic cyclic peptide (7) LSQPERW; experiment: ELISA on coated Pep 7; control IgG 1 ug/ml
[14] = molecular target: synthetic cyclic peptide (7) LSQPERW; experiment: ELISA on coated Pep 7; control IgG 5 ug/ml
[15] = molecular target: synthetic cyclic peptide (8) PPPDLHA; experiment: ELISA on coated Pep 8; control IgG 1 ug/ml
[16] = molecular target: synthetic cyclic peptide (8) PPPDLHA; experiment: ELISA on coated Pep 8; control IgG 5 ug/ml
[17] = molecular target: synthetic cyclic peptide (9) GTTQWVL; experiment: ELISA on coated Pep 9; control IgG 1 ug/ml
[18] = molecular target: synthetic cyclic peptide (9) GTTQWVL; experiment: ELISA on coated Pep 9; control IgG 5 ug/ml
[19] = molecular target: synthetic cyclic peptide (10) YGTPSSE; experiment: ELISA on coated Pep 10; control IgG 1 ug/ml
[20] = molecular target: synthetic cyclic peptide (10) YGTPSSE; experiment: ELISA on coated Pep 10; control IgG 5 ug/ml
[21] = molecular target: synthetic cyclic peptide (11) SLQRHPW; experiment: ELISA on coated Pep 11; control IgG 1 ug/ml
[22] = molecular target: synthetic cyclic peptide (11) SLQRHPW; experiment: ELISA on coated Pep 11; control IgG 5 ug/ml
[23] = molecular target: synthetic cyclic peptide (12) PLPDWRV; experiment: ELISA on coated Pep 12; control IgG 1 ug/ml
[24] = molecular target: synthetic cyclic peptide (12) PLPDWRV; experiment: ELISA on coated Pep 12; control IgG 5 ug/ml
[25] = molecular target: synthetic cyclic peptide (13) DWLYSRS; experiment: ELISA on coated Pep 13; control IgG 1 ug/ml
[26] = molecular target: synthetic cyclic peptide (13) DWLYSRS; experiment: ELISA on coated Pep 13; control IgG 5 ug/ml
[27] = molecular target: synthetic cyclic peptide (14) PPQKHLL; experiment: ELISA on coated Pep 14; control IgG 1 ug/ml
[28] = molecular target: synthetic cyclic peptide (14) PPQKHLL; experiment: ELISA on coated Pep 14; control IgG 5 ug/ml
[29] = molecular target: synthetic cyclic peptide (15) KYKRKYP; experiment: ELISA on coated Pep 15; control IgG 1 ug/ml
[30] = molecular target: synthetic cyclic peptide (15) KYKRKYP; experiment: ELISA on coated Pep 15; control IgG 5 ug/ml
[31] = molecular target: synthetic cyclic peptide (1) KHETTET; experiment: ELISA on coated Pep 1 (Table 3); control IgG 1 ug/ml
[32] = molecular target: synthetic cyclic peptide (1) KHETTET; experiment: ELISA on coated Pep 1 (Table 3); control IgG 5 ug/ml
[33] = molecular target: literature peptide …; experiment: ELISA on coated Pep 2 (Table 3); control IgG 1 ug/ml
[34] = molecular target: literature peptide …; experiment: ELISA on coated Pep 2 (Table 3); control IgG 5 ug/ml
[35] = molecular target: literature peptide …; experiment: ELISA on coated Pep 3 (Table 3); control IgG 1 ug/ml
[36] = molecular target: literature peptide …; experiment: ELISA on coated Pep 3 (Table 3); control IgG 5 ug/ml
[37] = molecular target: literature peptide …; experiment: ELISA on coated Pep 4 (Table 3); control IgG 1 ug/ml
[38] = molecular target: literature peptide …; experiment: ELISA on coated Pep 4 (Table 3); control IgG 5 ug/ml
[39] = molecular target: literature peptide …; experiment: ELISA on coated Pep 5 (Table 3); control IgG 1 ug/ml
[40] = molecular target: literature peptide …; experiment: ELISA on coated Pep 5 (Table 3); control IgG 5 ug/ml
[41] = molecular target: literature peptide …; experiment: ELISA on coated Pep 6 (Table 3); control IgG 1 ug/ml
[42] = molecular target: literature peptide …; experiment: ELISA on coated Pep 6 (Table 3); control IgG 5 ug/ml
[43] = molecular target: literature peptide …; experiment: ELISA on coated Pep 7 (Table 3); control IgG 1 ug/ml
[44] = molecular target: literature peptide …; experiment: ELISA on coated Pep 7 (Table 3); control IgG 5 ug/ml
[45] = molecular target: literature peptide …; experiment: ELISA on coated Pep 8 (Table 3); control IgG 1 ug/ml
[46] = molecular target: literature peptide …; experiment: ELISA on coated Pep 8 (Table 3); control IgG 5 ug/ml
[47] = molecular target: literature peptide …; experiment: ELISA on coated Pep 9 (Table 3); control IgG 1 ug/ml
[48] = molecular target: literature peptide …; experiment: ELISA on coated Pep 9 (Table 3); control IgG 5 ug/ml
[49] = molecular target: literature peptide …; experiment: ELISA on coated Pep 10 (Table 3); control IgG 1 ug/ml
[50] = molecular target: literature peptide …; experiment: ELISA on coated Pep 10 (Table 3); control IgG 5 ug/ml
[51] = molecular target: literature peptide …; experiment: ELISA on coated Pep 11 (Table 3); control IgG 1 ug/ml
[52] = molecular target: literature peptide …; experiment: ELISA on coated Pep 11 (Table 3); control IgG 5 ug/ml
[53] = tested on: anti-anti-dsDNA (anti-Id) isolated from IVIG; experiment: Direct binding of anti-Id to the synthetic peptides by ELISA; design: species or system human
Description: (§1) The binding of anti-Id to the peptides was tested by ELISA.
(§2) ELISA plates were coated by 10 ug/ml of peptides in PBS overnight at 4° C. The plates were blocked with 3% BSA for 1hr at 37° C. Anti-Id was added at different concentrations. IgG purified from one donor was used as negative control.
(§3) The binding of the immunoglobulin was probed with goat anti-human IgG conjugated to alkaline phosphatase and the appropriate substrate. Between each step, extensive washings were performed with 0.05% PBS-Tween.
(§4) The same protocol was used as above, but the peptides used in this study were taken from the literature except for peptide number 1 which is the first peptide in the previous experiment.

[54] = tested on: control IgG (IgG purified from one donor); experiment: Direct binding ELISA, negative control immunoglobulin; design: species or system human
Description: as §1, §2, §3, §4

“IgG purified from one donor (negative control) (antibody)” gave an OD at 405 nm [1] of 0.013 OD, an OD at 405 nm [2] of 0.016 OD and an OD at 405 nm [3] of 0.009 OD. It also gave an OD at 405 nm [4] of 0.009 OD, an OD at 405 nm [5] of 0.011 OD and an OD at 405 nm [6] of 0.011 OD. It also gave an OD at 405 nm [7] of 0.013 OD, an OD at 405 nm [8] of 0.011 OD and an OD at 405 nm [9] of 0.009 OD. It also gave an OD at 405 nm [10] of 0.008 OD, an OD at 405 nm [11] of 0.007 OD and an OD at 405 nm [12] of 0.009 OD. For the same substance, the OD at 405 nm [13] was 0.045 OD, the OD at 405 nm [14] was 0.048 OD and the OD at 405 nm [15] was 0.043 OD. For the same substance, the OD at 405 nm [16] was 0.046 OD, the OD at 405 nm [17] was 0.045 OD and the OD at 405 nm [18] was 0.044 OD. For the same substance, the OD at 405 nm [19] was 0.06 OD, the OD at 405 nm [20] was 0.048 OD and the OD at 405 nm [21] was 0.068 OD. The OD at 405 nm [22] was 0.068 OD, the OD at 405 nm [23] was 0.043 OD and the OD at 405 nm [24] was 0.045 OD. For the same substance, the OD at 405 nm [25] was 0.069 OD, the OD at 405 nm [26] was 0.078 OD and the OD at 405 nm [27] was 0.079 OD. It also gave an OD at 405 nm [28] of 0.083 OD, an OD at 405 nm [29] of 0.037 OD and an OD at 405 nm [30] of 0.068 OD. It also gave an OD at 405 nm [31] of 0.044 OD, an OD at 405 nm [32] of 0.043 OD and an OD at 405 nm [33] of 0.04 OD. It also gave an OD at 405 nm [34] of 0.041 OD, an OD at 405 nm [35] of 0.043 OD and an OD at 405 nm [36] of 0.043 OD. For the same substance, the OD at 405 nm [37] was 0.04 OD, the OD at 405 nm [38] was 0.039 OD and the OD at 405 nm [39] was 0.043 OD. For the same substance, the OD at 405 nm [40] was 0.048 OD, the OD at 405 nm [41] was 0.046 OD and the OD at 405 nm [42] was 0.043 OD. The OD at 405 nm [43] was 0.043 OD, the OD at 405 nm [44] was 0.052 OD and the OD at 405 nm [45] was 0.044 OD. It also gave an OD at 405 nm [46] of 0.041 OD, an OD at 405 nm [47] of 0.044 OD and an OD at 405 nm [48] of 0.045 OD. The OD at 405 nm [49] was 0.042 OD, the OD at 405 nm [50] was 0.041 OD and the OD at 405 nm [51] was 0.043 OD. The OD at 405 nm [52] was 0.041 OD.

In the case of KHETTET [Pep 1], the “binding of anti-Id to peptide (OD at 405 nm)” value (shortened to “binding of anti-Id to peptide”) ([53]; Table 2, anti-Id 1 μg/ml) is reported as 0.046, the “binding of anti-Id to peptide” value ([53]; Table 2, anti-Id 2.5 μg/ml) is reported as 0.269 and the “binding of anti-Id to peptide” value ([53]; Table 2, anti-Id 5 μg/ml) is reported as 1.329. For the same substance, the “binding of anti-Id to peptide” value ([53]; Table 2, anti-Id 10 μg/ml, plates coated with 10 ug/ml peptide) was 1.815, the “binding of anti-Id to peptide” value ([53]; Table 3 (literature peptides), anti-Id 10 μg/ml) was 1.21 and the “binding of anti-Id to peptide” value ([53]; Table 3, anti-Id 1 μg/ml) was 0.041. For the same substance, the “binding of anti-Id to peptide” value ([53]; Table 3, anti-Id 2.5 μg/ml) was 0.074, the “binding of anti-Id to peptide” value ([53]; Table 3, anti-Id 5 μg/ml) was 0.216 and the “binding of control IgG to peptide (OD at 405 nm)” value (“binding of control IgG to peptide” for short) ([54]; Table 2, control IgG 1 μg/ml) was 0.013. For the same substance, the “binding of control IgG to peptide” value ([54]; Table 2, control IgG 5 μg/ml) was 0.016, the “binding of control IgG to peptide” value ([54]; Table 3, Control IgG 1 μg/ml) was 0.044 and the “binding of control IgG to peptide” value ([54]; Table 3, Control IgG 5 μg/ml) was 0.043.

Reference: patent US8450067B2, “Method for obtaining anti-idiotype antibodies” (Omrix Biopharmaceuticals Inc., priority 2002, dated 2013)
